{"source": "patent US4371523A", "about": "“Reducing the aggregation of insulin in solution” (The Regents of the University of California, priority 1980, dated 1983)", "key": {"[1]": {"assay": "Controlled shaking of insulin solutions in 2-week minipumps equipped with small diameter catheters", "type": "physicochemical", "details": "shaken 8 days at 37°", "experimental": "Minipumps (Alzet Osmotic Minipump No. 2002, Alza Corporation, Palo Alto, Calif.) that release their contents ([…]) at a constant rate ([…]) over a minimum of 14 days were filled with insulin or amino acid-insulin solutions. The minipumps were weighed before and after filling to determine the initial inner fluid volume. A 5 cm vinyl catheter (Iv. soft medical polyvinyl tubing; i.D.=0.023 inch; Bolab Inc. Co., Derry, N.H.) was attached to the tubes' exterior beyond their flanges.\nAcid and neutral insulin solutions were prepared with and without glutamic or aspartic acids as described in Example I except insulin concentrations were 120 U/ml (approximately 5 mg/ml). Glutamic and aspartic acids were added to a concentration of 7 mg/ml. The final pH's of the amino acid insulin solutions were 3.3-3.5.\nPumps with attached catheters were placed in a 5 ml plastic vial containing a cotton wad and sufficient saline to immerse and activate the pump. The catheter passed through a 0.5 ml air space at the top of the fluid in the tube, the terminal end being submerged in the saline. The tubes were sealed with a plastic cap covered with parafilm. They were shaken at 37° in a metabolic shaking incubator (Dubnoff E.C.A.) at 80-100 r.p.m. for periods up to 8 days. Pumps were removed from the tubes on the 8th day after shaking; catheters were examined for precipitates by eye and residual contents were removed and centrifuged in microtubes to evaluate the precipitate."}, "[2]": {"molecular_target": "T1, single component neutral pork zinc insulin (Sus scrofa, UniProt P01315)", "T1 construct": "single component, neutral, pork, zinc-insulin (U.500 regular Iletin II., Eli Lilly & Company); purchased Eli Lilly & Company U.500 regular Iletin II", "T1 sequence (P01315 25-54 limits assumed)": "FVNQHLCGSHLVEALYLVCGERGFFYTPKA", "T1 sequence (P01315 88-108 limits assumed)": "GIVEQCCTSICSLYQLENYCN", "assay": "Controlled shaking of zinc insulin solutions in test tubes, optical density at 600 nm", "type": "physicochemical", "details": "for Optical Density ± 1 × SE: zinc insulin 50 U/ml, OD at 600 nm", "experimental": "In vitro testing of single component neutral pork zinc insulin was undertaken with a number of added agents. Solutions at about neutral pH and at acid pH were tested. In addition, some testing was also undertaken with Na insulin.\nThe tests were conducted using plastic tybes (5 ml test tubes, Sarstedt, sealed by plastic caps covered with paraffin) each containing 2 ml of the insulin solutions noted below. The tubes were continuously agitated in a metabolic shaking incubator (Dubnoff E.C.A. Co.) at 60 to 80 r.p.m. and 37° C. for periods up to sixteen days.\nThe zinc insulin solutions were prepared by appropriate dilutions of highly concentrated (500 U/ml) single component, neutral, pork, zinc-insulin (U.500 regular Iletin II., Eli Lilly & Company). The unbuffered diluting fluid contained glycerin, 16 mg/ml, and phenol, 2 mg/ml of distilled water (Eli Lilly & Company). […] Final insulin concentration in all solutions was 50 U/ml (2 mg/ml).\nInsulin solutions with amino acid added were prepared by addition of the dry amino acids (Sigma Company) to the neutral zinc or sodium insulin solutions. Final concentration of the amino acid additives was 7 mg per ml of insulin solution. pH was adjusted, when necessary, to 7.5 for neutral insulin mixtures and to 3.3-3.5 for acid insulin mixtures.\nSeveral non-amino carboxylic acids, i.e., lactic acid, acetic acid, and citric acid, were added under the same conditions of concentration and pH as described for the amino acids.\nThe various insulin solutions, both as made up without additives and with additives, were shaken as noted above for up to sixteen days, at which time the solutions were examined with an optical densitometer at a wave length 600 nm. The optical density (OD) of each solution was an indication of the amount of aggregation present after the shaking period. The higher the optical density, the greater the aggregation in that solution."}}}
{"substance": "Neutral Single Component Zinc Insulin: single component, neutral, pork, zinc-insulin (U.500 regular Iletin II, Eli Lilly & Company), diluted, no agent added", "values": [{"measurement": "Number of Pumps with Aggregates in Catheter", "setting": "[1]; pH 3.3, 120 U/ml, of 6 pumps", "result": 4}, {"measurement": "Number of Pumps with Precipitates", "setting": "[1]; pH 3.3, 120 U/ml, of 6 pumps", "result": 0}, {"measurement": "Number of Pumps with Aggregates in Catheter", "setting": "[1]; pH 7.4, 120 U/ml, of 3 pumps", "result": 3}, {"measurement": "Number of Pumps with Precipitates", "setting": "[1]; pH 7.4, 120 U/ml, of 3 pumps", "result": 3}, {"measurement": "Time at which aggregates appeared", "setting": "[2]; acidified (pH 2.9-3.3), unbuffered", "result": "by the fourth day"}, {"measurement": "Aggregation of acidified unbuffered insulin solution (in words)", "setting": "[2]; pH 2.9-3.3, unbuffered, through day 16", "result": "the aggregation was as great through day 16 as unacidified solutions"}, {"measurement": "Optical Density ± 1 × SE", "setting": "[2]; pH 2.9-3.3, shaken 16 days at 37° C.", "result": "0.181 ± 0.03"}, {"measurement": "Optical Density ± 1 × SE", "setting": "[2]; pH 7.4, shaken 16 days at 37° C., higher OD = greater aggregation", "result": "0.603 ± 0.08"}]}
